Reference: patent publication US20250188185A1 (KOREA UNIVERSITY RESEARCH AND BUSINESS FOUNDATION, published 2025)
Numbering of substitutions follows the chain as printed.

B1: rituximab Fc variant RTX-PS101 (antibody, human IgG1, kappa)
heavy: QVQLQQPGAELVKPGASVKMSCKASGYTFTSYNMHWVKQTPGRGLEWIGAIYPGNGDTSYNQKFKGKATLTADKSSSTAYMQLSSLTSEDSAVYYCARSTYYGGDWYFNVWGAGTTVTVSAASTKGPSVFPLAPSSKSTSGGTAALGCLVKDYFPEPVTVSWNSGALTSGVHTFPAVLQSSGLYSLSSVVTVPSSSLGTQTYICNVNHKPSNTKVDKKAEPKSCDKTHTCPPCPAPELLGGPSVFLLPPKIKDTLMISRTPEVTCVVVDVSHEDPEVKFNWYVDGVEVHNAKTKPPEEQYNSTLRVVSILTVLHQDWLNGKEYKCKVSNKALPLPEEKTISKQKGQPREPQVYTLPPSRDELTKNQVSLTCLVKGFYPSDIAVEWESNGQQENNYKTTPPVLDSDGSFFLYSKLTVDKSRWQQGNVFSCSVMHEALHNHYTQKSLSLSPGK
light: QIVLSQSPAILSASPGEKVTMTCRASSSVSYIHWFQQKPGSSPKPWIYATSNLASGVPVRFSGSGSGTSYSLTISRVEAEDAATYYCQQWTSNPPTFGGGTKLEIKRTVAAPSVFIFPPSDEQLKSGTASVVCLLNNFYPREAKVQWKVDNALQSGNSQESVTEQDSKDSTYSLSSTLTLSKADYEKHKVYACEVTHQGLSSPVTKSFNRGEC
B2: rituximab Fc variant RTX-PS107 (antibody, human IgG1, kappa)
heavy: B1 heavy with D360G
light: B1 light
B3: rituximab Fc variant RTX-PS102 (antibody)
heavy: B1 heavy with H228R, V307I
light: B1 light

Tests used:
FcγRIIIa-158F-GST = molecular target: T1, FcγRIIIa-158F-GST (human, UniProt P08637 17-208); experiment: ELISA, FcγRIIIa-158F-GST coated at 4 µg/ml, antibody titrated, HRP-Protein L detection
T1 construct: not shown: GST (glutathione S-transferase) fusion partner
T1 sequence (P08637 17-208): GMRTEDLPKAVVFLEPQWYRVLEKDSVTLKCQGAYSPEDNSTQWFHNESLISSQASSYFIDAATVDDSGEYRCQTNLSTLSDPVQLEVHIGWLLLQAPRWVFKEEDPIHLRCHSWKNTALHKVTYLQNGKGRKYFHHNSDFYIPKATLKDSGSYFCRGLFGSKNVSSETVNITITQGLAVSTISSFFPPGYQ
Method: After washing, antibody reaction was performed for 1 hour at room temperature, and then washed using 50 μl of HRP-Protein L (GenScript, M00098). 50 μl of a 1-Step Ultra TMB-ELISA substrate solution (Thermo Fisher Scientific, 34028) was added to develop color, and then added with 50 μl each of 2 M H₂SO₄ to terminate the reaction. Absorbance was measured using an Epoch microplate spectrophotometer (BioTek).

[1] = molecular target: T2, cynomolgus monkey FcγRIII-GST (cynomolgus monkey, UniProt Q8SPW2 17-208); experiment: ELISA, cynomolgus monkey FcγRIII-GST coated at 4 µg/ml, antibody titrated, HRP-Protein L detection
T2 construct: GST fusion form made in Expi293F cells, purified on glutathione resin; not shown: GST fusion partner
T2 sequence (Q8SPW2 17-208): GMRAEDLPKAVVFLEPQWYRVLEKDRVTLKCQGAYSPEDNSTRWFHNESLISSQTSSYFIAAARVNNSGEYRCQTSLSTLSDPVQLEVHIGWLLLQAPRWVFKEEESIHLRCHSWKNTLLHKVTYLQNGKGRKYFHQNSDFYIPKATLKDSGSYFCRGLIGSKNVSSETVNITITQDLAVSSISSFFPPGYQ
Method: Specifically, 50 μl of mouse FcγRIV-GST and cynomolgus monkey FcγRIII-GST diluted to 4 μg/ml in 0.05 M Na₂CO₃ pH 9.6 were immobilized on a flat bottom polystyrene high bind 96-well plate (Costar, 3590) for 16 hours at 4° C., respectively, and then blocked with 100 μl of 4% skim milk (GenomicBase, SKI400) at room temperature for 2 hours. […] After washing, antibody reaction was performed for 1 hour at room temperature, and then washed using 50 μl of HRP-Protein L (GenScript, M00098). 50 μl of a 1-Step Ultra TMB-ELISA substrate solution (Thermo Fisher Scientific, 34028) was added to develop color, and then added with 50 μl each of 2 M H₂SO₄ to terminate the reaction. Absorbance was measured using an Epoch microplate spectrophotometer (BioTek).

Binder	EC50 (read off the curve) (FcγRIIIa-158F-GST) [nM]	EC50 (read off the curve) [1] [nM]
B1	~3	~3
B2	~3	~3
B3	–	~3
